For experiment [1], the target named is NIX(1–182)-GST (Homo sapiens (Human), UniProt O60238). The experiment in a line: microscopy-based bead assay.
Experiment [2] has as its target GST-FAM134C (residues 250–466) (Homo sapiens (Human), UniProt Q86VR2). The experiment in a line: microscopy-based bead assay.

Chain of NIX(1–182)-GST (O60238 1-182): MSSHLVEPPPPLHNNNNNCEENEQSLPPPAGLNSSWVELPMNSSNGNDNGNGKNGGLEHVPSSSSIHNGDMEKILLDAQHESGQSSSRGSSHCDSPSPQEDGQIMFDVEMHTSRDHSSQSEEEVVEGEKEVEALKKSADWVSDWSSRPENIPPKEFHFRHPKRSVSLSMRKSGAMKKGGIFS
Chain of GST-FAM134C (residues 250–466) (Q86VR2 250-466): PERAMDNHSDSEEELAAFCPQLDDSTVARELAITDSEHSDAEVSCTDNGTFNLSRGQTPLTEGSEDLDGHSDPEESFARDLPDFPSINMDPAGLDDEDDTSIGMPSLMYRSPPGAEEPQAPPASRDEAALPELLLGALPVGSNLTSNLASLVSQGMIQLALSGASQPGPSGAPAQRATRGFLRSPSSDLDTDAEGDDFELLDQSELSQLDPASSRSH

B1: mCherry-WIPI3 (protein)
chain: not shown
With B1, the binding result in experiment [1] is on record as “no binding”.

B2: GFP-FIP200 C-terminal region (CTR), residues 1429–1591 (protein)
chain: ADEGRVDSAMETSMMSVQENIHMLSEEKQRIMLLERTLQLKEEENKRLNQRLMSQSMSSVSSRHSEKIAIRDFQVGDLVLIILDERHDNYVLFTVSPTLYFLHSESLPALDLKPASGASRRPWVLGKVMEKEYCQAKKAQNRFKVPLGTKFYRVKAVSWNKKV
In the case of B2, the binding result is “no binding” in experiment [1] and “binds” in experiment [2].

B3: mCherry-tagged WIPI1 (protein)
chain: MEAEAADAPPGGVESALSCFSFNQDCTSLATGTKAGYKLFSLSSVEQLDQVHGSNEIPDVYIVERLFSSSLVVVVSHTKPRQMNVYHFKKGTEICNYSYSSNILSIRLNRQRLLVCLEESIYIHNIKDMKLLKTLLDIPANPTGLCALSINHSNSYLAYPGSLTSGEIVLYDGNSLKTVCTIAAHEGTLAAITFNASGSKLASASEKGTVIRVFSVPDGQKLYEFRRGMKRYVTISSLVFSMDSQFLCASSNTETVHIFKLEQVTNSRPEEPSTWSGYMGKMFMAATNYLPTQVSDMMHQDRAFATARLNFSGQRNICTLSTIQKLPRLLVASSSGHLYMYNLDPQDGGECVLIKTHSLLGSGTTEENKENDLRPSLPQSYAATVARPSASSASTVPGYSEDGGALRGEVIPEHEFATGPVCLDDENEFPPIILCRGNQKGKTKQS
On to B3, for which the binding result in experiment [1] is “binds”.

B4: GFP-tagged TBK1 (protein)
chain: MQSTSNHLWLLSDILGQGATANVFRGRHKKTGDLFAIKVFNNISFLRPVDVQMREFEVLKKLNHKNIVKLFAIEEETTTRHKVLIMEFCPCGSLYTVLEEPSNAYGLPESEFLIVLRDVVGGMNHLRENGIVHRDIKPGNIMRVIGEDGQSVYKLTDFGAARELEDDEQFVSLYGTEEYLHPDMYERAVLRKDHQKKYGATVDLWSIGVTFYHAATGSLPFRPFEGPRRNKEVMYKIITGKPSGAISGVQKAENGPIDWSGDMPVSCSLSRGLQVLLTPVLANILEADQEKCWGFDQFFAETSDILHRMVIHVFSLQQMTAHKIYIHSYNTATIFHELVYKQTKIISSNQELIYEGRRLVLEPGRLAQHFPKTTEENPIFVVSREPLNTIGLIYEKISLPKVHPRYDLDGDASMAKAITGVVCYACRIASTLLLYQELMRKGIRWLIELIKDDYNETVHKKTEVVITLDFCIRNIEKTVKVYEKLMKINLEAAELGEISDIHTKLLRLSSSQGTIETSLQDIDSRLSPGGSLADAWAHQEGTHPKDRNVEKLQVLLNCMTEIYYQFKKDKAERRLAYNEEQIHKFDKQKLYYHATKAMTHFTDECVKKYEAFLNKSEEWIRKMLHLRKQLLSLTNQCFDIEEEVSKYQEYTNELQETLPQKMFTASSGIKHTMTPIYPSSNTLVEMTLGMKKLKEEMEGVVKELAENNHILERFGSLTMDGGLRNVDCL
For B4, in experiment [1], the binding result is given as “no binding”.

Values taken from article PMC12339401 (2025).
